{"source": "patent CN111138527A", "about": "(INST MILITARY MEDICINE ACADEMY MILITARY SCIENCES PLA, dated 2020)", "binders": {"B1": {"name": "抗埃博拉病毒糖蛋白GP1亚基的单克隆抗体4F1 (antibody, V domains shown)", "VH": "EVQLVESGGGLVQPGGSLRLSCAASGFSFRIYDMHWVRQVTGRGLEWVSAIGSASDTYYRDSVKGRFTISRENAKNSLYLQMNSLRAGDTAVYYCARASFGELMFDLWGQGTLVTVSS", "VL": "DIQMTQSPSSLSLSPGERATLSCRASQSVGSSLAWYQQKPGQAPRLLIYAASSRATGFPDRFSGSGSGTDFTLTISRLEPEDFAVYYCQQYGGSPLTFGGGTKVEIKT"}}, "key": {"GP 95-295": {"target": "GP 95-295 (Ebola virus (EBOV), UniProt Q05320 95-295)", "assay": "ELISA on coated truncated GP"}, "sGP": {"target": "sGP (Ebola virus (EBOV), UniProt P60170 33-295)", "assay": "ELISA on coated truncated GP"}, "GP1": {"target": "GP1 (Ebola virus (EBOV), UniProt Q05320 33-501)", "assay": "ELISA on coated truncated GP"}, "EBOV GP": {"target": "T1, EBOV GP (Ebola virus (EBOV), UniProt Q05320 33-650)", "T1 sequence": "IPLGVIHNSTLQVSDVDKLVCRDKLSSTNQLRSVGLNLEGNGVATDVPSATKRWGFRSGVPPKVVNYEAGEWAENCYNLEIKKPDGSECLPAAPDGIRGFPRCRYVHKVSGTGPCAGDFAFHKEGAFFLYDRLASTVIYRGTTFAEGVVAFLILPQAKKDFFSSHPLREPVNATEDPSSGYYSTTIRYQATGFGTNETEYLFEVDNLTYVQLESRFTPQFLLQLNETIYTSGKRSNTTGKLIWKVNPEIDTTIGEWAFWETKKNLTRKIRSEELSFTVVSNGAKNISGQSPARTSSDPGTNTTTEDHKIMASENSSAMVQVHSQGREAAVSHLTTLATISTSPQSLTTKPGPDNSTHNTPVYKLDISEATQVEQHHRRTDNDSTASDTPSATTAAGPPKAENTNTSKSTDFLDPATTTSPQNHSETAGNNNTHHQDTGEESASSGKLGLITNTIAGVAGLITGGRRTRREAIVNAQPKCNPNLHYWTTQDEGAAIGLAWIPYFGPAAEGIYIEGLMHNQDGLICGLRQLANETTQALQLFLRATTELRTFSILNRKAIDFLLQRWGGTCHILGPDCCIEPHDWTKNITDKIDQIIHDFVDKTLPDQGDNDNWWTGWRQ", "assay": "ELISA, EBOV GP coated at 1 μg/mL"}}, "data": [{"binder": "B1", "values": [{"measurement": "EC50", "setting": "GP 95-295", "value": 33, "unit": "ng/mL"}, {"measurement": "fold decrease of binding activity relative to GPdTM", "setting": "GP 95-295", "value": "~5", "unit": "fold"}, {"measurement": "EC50", "setting": "sGP", "value": 3.9, "unit": "ng/mL"}, {"measurement": "EC50", "setting": "GP1", "value": 7.8, "unit": "ng/mL"}, {"measurement": "EC50", "setting": "EBOV GP", "value": 5.7, "unit": "ng/mL"}]}]}
